These are literature values, as cited in patent US11795217B2, “Interleukin-1 inhibition for combination treatment of pancreatic cancer cachexia” (Cedars-Sinai Medical Center, priority 2018, dated 2023).

In series [1] the test system is patients with refractory cancers.
The subject of series [2] is patients with advanced cancer and cancer-associated symptoms. The following applies: in vivo, 7.5 mg/kg.
The test system of series [3] is patients with metastatic colorectal cancer.

As for bermekimab, the “patients with a positive DXA outcome as defined for the responder endpoint” value in series [1] (61 patients) is given as 62 % of evaluable patients. Also, the minimum effective dose in series [1] (every 2 weeks, dose escalation study) is 3.75 mg/kg. Further, in series [1] (human, in vivo), the dose limiting toxicity result was “no dose limiting toxicity”, the “grade ¾ toxicities: fatigue” value is reported as 13%, the “grade ¾ toxicities: nausea” value is 13% and the “grade ¾ toxicities: proteinuria” value was 21%. For the same substance, the “average LBM (lean body mass) change” value in series [1] (patients with positive DXA outcome) was 2.1 ± 2.8 kg. Also, the drug-related toxicities result in series [2] was “no definite drug-related toxicities”. Besides, in series [3] (309 patients, randomized 2:1, placebo 19%, p=0.0045), the “response to treatment (primary outcome)” value is 33%. Besides, the “relative reduction in the number of SAEs” value in series [3] (human, in vivo) is reported as 26%.
